What all share (assay): cross-linking; BS3 (unlabeled, or 50:50 with 2H12-labeled BS3) on the purified native holoenzyme; 150 mM NaPO4, 150 mM KOAc, pH 7.5, 5% glycerol, 2 mM DTT; procedure A 2.7 mM reagent 120 min on ice; trypsin digest, LC-MS/MS, Protein Prospector
Details in all cases: both partners purified

For experiment [1], the target named is T1, Med14 (Rgr1), Mediator subunit (S. cerevisiae, UniProt P19263 1-1082).
T1 construct: Med14 (Rgr1), S. cerevisiae, endogenous, residues 1-1082 spoken of; source: endogenous, S. cerevisiae CB010 double-tagged strain; within the purified native holoenzyme
T1 sequence (looked up): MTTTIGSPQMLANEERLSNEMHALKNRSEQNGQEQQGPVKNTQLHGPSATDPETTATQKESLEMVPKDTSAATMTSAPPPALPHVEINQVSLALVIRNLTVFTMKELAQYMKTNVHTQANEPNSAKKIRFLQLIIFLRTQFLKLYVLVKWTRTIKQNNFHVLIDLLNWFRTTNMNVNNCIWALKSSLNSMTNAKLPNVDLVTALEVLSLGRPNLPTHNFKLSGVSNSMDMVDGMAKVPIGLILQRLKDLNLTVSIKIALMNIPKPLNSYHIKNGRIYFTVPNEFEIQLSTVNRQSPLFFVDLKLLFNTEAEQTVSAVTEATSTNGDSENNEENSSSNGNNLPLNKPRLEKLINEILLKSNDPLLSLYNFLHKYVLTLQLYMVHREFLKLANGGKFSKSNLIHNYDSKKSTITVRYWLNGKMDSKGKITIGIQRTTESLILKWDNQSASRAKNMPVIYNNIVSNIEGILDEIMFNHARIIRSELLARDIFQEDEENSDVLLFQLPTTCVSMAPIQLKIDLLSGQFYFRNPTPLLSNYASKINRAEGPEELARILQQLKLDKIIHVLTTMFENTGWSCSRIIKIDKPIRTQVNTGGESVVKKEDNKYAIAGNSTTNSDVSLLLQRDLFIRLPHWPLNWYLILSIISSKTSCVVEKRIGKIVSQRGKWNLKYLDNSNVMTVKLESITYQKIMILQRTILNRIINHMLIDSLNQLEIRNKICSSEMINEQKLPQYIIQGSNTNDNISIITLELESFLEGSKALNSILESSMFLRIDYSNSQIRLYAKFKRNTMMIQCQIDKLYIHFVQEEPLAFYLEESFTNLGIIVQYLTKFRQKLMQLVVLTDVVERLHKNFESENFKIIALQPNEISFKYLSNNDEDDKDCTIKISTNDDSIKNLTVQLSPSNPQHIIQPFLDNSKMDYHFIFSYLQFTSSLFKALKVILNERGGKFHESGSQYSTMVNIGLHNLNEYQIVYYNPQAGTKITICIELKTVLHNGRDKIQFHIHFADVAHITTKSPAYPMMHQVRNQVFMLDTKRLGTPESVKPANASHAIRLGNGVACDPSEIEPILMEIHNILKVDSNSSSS

In experiment [2] the target is T2, Med17 (Srb4), Mediator Head module subunit (S. cerevisiae, UniProt P32569 1-687).
T2 construct: Med17 (Srb4), S. cerevisiae, endogenous, residues 1-687 spoken of; cross-linking was done after cleavage; also called Med17p; source: endogenous, S. cerevisiae CB010 double-tagged strain; within the purified native holoenzyme; not shown: TAP, N-terminal, cleaved
T2 sequence (looked up): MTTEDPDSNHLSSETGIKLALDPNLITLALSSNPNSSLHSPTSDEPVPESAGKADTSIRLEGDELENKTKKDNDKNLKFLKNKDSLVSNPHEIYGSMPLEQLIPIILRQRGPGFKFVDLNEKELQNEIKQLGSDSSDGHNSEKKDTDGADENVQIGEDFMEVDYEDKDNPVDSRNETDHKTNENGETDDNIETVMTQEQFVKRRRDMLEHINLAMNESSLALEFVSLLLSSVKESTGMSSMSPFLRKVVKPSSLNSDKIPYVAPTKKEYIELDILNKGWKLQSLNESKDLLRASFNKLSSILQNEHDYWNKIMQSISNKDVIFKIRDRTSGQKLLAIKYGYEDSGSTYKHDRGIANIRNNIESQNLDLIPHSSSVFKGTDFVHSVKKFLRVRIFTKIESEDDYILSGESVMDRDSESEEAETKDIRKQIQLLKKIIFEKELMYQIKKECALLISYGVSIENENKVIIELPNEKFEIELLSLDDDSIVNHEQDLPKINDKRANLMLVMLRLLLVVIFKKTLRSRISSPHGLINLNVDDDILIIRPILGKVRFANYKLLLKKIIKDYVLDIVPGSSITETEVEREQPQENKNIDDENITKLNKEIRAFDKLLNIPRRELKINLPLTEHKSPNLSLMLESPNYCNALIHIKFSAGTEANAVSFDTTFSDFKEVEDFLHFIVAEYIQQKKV

In experiment [3] the target is T3, Med1, Mediator Middle module subunit (S. cerevisiae, UniProt Q12321 1-566).
T3 construct: Med1, S. cerevisiae, endogenous; source: endogenous, S. cerevisiae CB010 double-tagged strain; within the purified native holoenzyme
T3 sequence (looked up): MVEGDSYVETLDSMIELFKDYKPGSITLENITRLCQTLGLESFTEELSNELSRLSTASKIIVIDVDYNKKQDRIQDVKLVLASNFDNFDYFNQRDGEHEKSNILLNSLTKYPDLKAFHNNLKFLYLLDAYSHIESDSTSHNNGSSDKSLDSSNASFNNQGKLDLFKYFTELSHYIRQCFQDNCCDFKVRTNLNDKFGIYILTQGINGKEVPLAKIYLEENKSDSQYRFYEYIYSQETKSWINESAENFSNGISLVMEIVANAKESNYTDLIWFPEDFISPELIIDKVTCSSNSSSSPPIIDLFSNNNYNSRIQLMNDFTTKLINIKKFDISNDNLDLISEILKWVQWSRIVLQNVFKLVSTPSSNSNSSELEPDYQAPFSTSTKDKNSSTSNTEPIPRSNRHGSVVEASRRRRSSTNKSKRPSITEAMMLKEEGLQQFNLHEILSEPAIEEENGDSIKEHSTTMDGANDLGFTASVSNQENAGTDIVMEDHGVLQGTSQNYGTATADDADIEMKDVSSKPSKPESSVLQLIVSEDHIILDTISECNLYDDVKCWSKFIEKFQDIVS

This is an account of results in paper PMC4631838, “Molecular architecture of the yeast Mediator complex” (eLife, 2015).

B1: Med21, Mediator Middle module subunit (natural protein, S. cerevisiae, UniProt P47822 1-140, looked up)
chain: MTDRLTQLQICLDQMTEQFCATLNYIDKNHGFERLTVNEPQMSDKHATVVPPEEFSNTIDELSTDIILKTRQINKLIDSLPGVDVSAEEQLRKIDMLQKKLVEVEDEKIEAIKKKEKLLRHVDSLIEDFVDGIANSKKST
notes: Med21 (printed old name Sbr7), S. cerevisiae, endogenous; also called Sbr7; source: endogenous, S. cerevisiae CB010 double-tagged strain; within the purified native holoenzyme
Take B1: the binding result in experiment [1] and in experiment [2] was “binds” each time.

B2: Med7, Mediator Middle module subunit (natural protein, S. cerevisiae, UniProt Q08278 1-222, looked up)
chain: MSNDPGNEVSSLYPPPPPYVKFFTQSNLEKLPKYKEKKAASAKQTAPNNSNGGSEEEITCALDYLIPPPMPKNQQYRAFGSIWQVKDQLPDLESMGLTQLYKKSTENESTNYQYKIQELRKLLKSLLLNYLELIGVLSINPDMYERKVENIRTILVNIHHLLNEYRPHQSRESLIMLLEEQLEYKRGEIREIEQVCKQVHDKLTSIQDTLRTGSQSPPSSSQ
notes: Med7, S. cerevisiae, endogenous; source: endogenous, S. cerevisiae CB010 double-tagged strain; within the purified native holoenzyme
Turning to B2, in experiment [2], the binding result is listed as “binds”.

B3: Med9 (Cse2), Mediator Middle module subunit (natural protein, S. cerevisiae, UniProt P33308 1-149, looked up)
chain: MNLQNNVLNQIHQILLPTNPTLDKPNAEATKEEFSSAENRDEKDYLTNQQPKNLSTPSTSSNGEFIPHIFYSLHQIRKDPNNLSNQLETLTGSIRHRLKLCKSLISENEDTKDLLSKSPSEWQDIIHQREQELQIKRDVLDDLYRKLQR
notes: Med9 (Cse2), S. cerevisiae, endogenous; source: endogenous, S. cerevisiae CB010 double-tagged strain; within the purified native holoenzyme
For the molecule B3, the binding result in experiment [1] and in experiment [3] was “binds” in each case.
